Assay results: patent publication US20260191981A1 (ARROWHEAD PHARMACEUTICALS, published 2026)

Assays:
[1] = molecular target: T1, human transferrin receptor 1 (hTfR1) (human, UniProt P02786 89-760, limits assumed); assay: competition phage ELISA (phage-displayed Fab)
T1 construct: The selections used the biotinylated ECD domain of hTfR1

[2] = molecular target: T1, human transferrin receptor 1 (hTfR1); assay: competition ELISA, Fab
[3] = molecular target: T2, cynomolgus monkey transferrin receptor 1 (cTfR1) (cynomolgus monkey, UniProt H9EXL1 89-760 (rhesus entry)); assay: competition phage ELISA (phage-displayed Fab)
T2 construct: The ELISA against cTfR1 is not described in the text
T2 sequence (chain, as listed by the source): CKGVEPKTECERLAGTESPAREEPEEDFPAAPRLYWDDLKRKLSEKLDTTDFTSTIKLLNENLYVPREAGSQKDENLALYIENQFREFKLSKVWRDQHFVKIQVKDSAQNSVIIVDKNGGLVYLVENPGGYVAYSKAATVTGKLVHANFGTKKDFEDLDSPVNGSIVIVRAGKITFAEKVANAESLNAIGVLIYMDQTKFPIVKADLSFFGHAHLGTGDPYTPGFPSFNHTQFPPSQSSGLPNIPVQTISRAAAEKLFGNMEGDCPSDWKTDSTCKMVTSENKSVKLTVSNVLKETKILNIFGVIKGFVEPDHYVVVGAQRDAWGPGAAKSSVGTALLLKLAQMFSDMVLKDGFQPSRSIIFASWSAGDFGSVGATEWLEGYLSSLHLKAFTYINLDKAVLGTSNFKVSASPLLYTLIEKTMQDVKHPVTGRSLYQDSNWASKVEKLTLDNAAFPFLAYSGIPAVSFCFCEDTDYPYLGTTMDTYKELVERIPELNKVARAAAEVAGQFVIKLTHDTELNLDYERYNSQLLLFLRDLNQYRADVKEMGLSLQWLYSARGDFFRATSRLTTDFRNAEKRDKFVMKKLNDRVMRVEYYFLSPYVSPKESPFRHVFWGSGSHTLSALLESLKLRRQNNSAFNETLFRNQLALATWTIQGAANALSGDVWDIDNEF

[4] = molecular target: T3, his-tagged cTfR1 (Acro Biosystems p/n TFR-C524a) (cynomolgus monkey, UniProt H9EXL1 89-760 (rhesus entry)); assay: SPR, Biacore X100, His-tagged TfR1 captured by anti-His
T3 construct: Bought reagent of the SPR assay
T3 sequence (chain, as listed by the source): as above
Protocol: Samples were analyzed via Surface Plasmon Resonance (SPR) to determine kinetics against cynomolgus monkey transferrin receptor 1 (cTfR1). Briefly, a Biacore X100 (Cytiva) was used for SPR measurements using a CM5 chip (carboxymethylated dextran surface, Cytiva p/n BR100399) with anti-histidine antibody irreversibly immobilized on the surface of both flow cells for the reversible capture of his-tagged cTfR1 (Acro Biosystems p/n TFR-C524a). The anti-histidine antibody was irreversibly immobilized via amine coupling using Cytiva provided Amine Coupling Kit (p/n BR100050) and His Capture Kit (p/n 28995056). […] Sample diluent was prepared in house and is composed of 10 mM HEPES buffer pH 7.4, 150 mM NaCl, 3 mM EDTA, and 0.05% Tween 20. Cytiva caps and vials compatible for Biacore X₁₀₀ were used for sample analysis. Each analysis cycle consists of a capture step followed by sample or blank injection, and finally a regeneration step that removes any sample and cTfR1 on the sensor surface. The capture step was performed at 5 μL/min with a contact time of 24 seconds over the active flow cell only, followed by a fluidics wash with 0.1% Tween 20. Generally, 2 μg/mL hTfR1 was a sufficient concentration to observe adequate hTfR1 captured consistently between cycles. Sample or buffer was injected at 30 μL/min with a contact time of 180 seconds and dissociation time of 180 seconds followed by a fluidics wash with 0.1% Tween 20. A 10 mM glycine solution at pH 1.5 (provided in His Capture Kit) was used for regeneration at 30 μL/min with a 60 second contact time. A cycle was performed for each sample concentration analyzed along with one cycle repeating one concentration for variability evaluation and 2-3 buffer cycles. Results were analyzed in Biacore Evaluation Software. Buffer cycles were averaged and subtracted from sample injections prior to kinetic fitting. A monovalent or kinetic fit was specified as relevant for the sample analyzed. Accuracy of the fit is evaluated and data points are excluded as applicable.

[5] = molecular target: T2, cynomolgus monkey transferrin receptor …; assay: competition ELISA, Fab
[6] = molecular target: T4, his-tagged hTfR1 (Acro Biosystems p/n CD1-H5243) (human, UniProt P02786 89-760); assay: SPR, Biacore X100, His-tagged TfR1 captured by anti-His
T4 construct: Bought reagent of the SPR assay
T4 sequence (P02786 89-760 limits assumed): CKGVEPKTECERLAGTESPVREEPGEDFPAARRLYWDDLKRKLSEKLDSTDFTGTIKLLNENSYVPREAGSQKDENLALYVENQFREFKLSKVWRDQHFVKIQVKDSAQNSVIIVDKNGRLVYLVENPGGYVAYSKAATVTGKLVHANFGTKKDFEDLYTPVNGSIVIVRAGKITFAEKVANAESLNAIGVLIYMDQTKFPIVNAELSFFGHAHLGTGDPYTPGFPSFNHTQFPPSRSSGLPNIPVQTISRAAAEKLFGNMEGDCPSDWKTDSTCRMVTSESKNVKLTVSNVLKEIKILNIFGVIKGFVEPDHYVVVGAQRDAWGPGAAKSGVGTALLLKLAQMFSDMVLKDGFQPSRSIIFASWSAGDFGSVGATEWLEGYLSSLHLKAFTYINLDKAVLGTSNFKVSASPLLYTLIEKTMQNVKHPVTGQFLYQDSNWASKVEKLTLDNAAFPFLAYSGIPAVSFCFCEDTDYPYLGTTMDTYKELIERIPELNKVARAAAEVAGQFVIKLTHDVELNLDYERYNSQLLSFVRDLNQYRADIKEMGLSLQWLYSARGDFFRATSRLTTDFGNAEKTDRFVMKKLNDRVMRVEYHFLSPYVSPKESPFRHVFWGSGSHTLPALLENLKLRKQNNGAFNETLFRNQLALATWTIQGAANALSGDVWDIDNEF
Protocol: Samples were analyzed via Surface Plasmon Resonance (SPR) to determine kinetics against human transferrin receptor 1 (hTfR1). Briefly, a Biacore X100 (Cytiva) was used for SPR measurements using a CM5 chip (carboxymethylated dextran surface, Cytiva p/n BR100399) with anti-histidine antibody irreversibly immobilized on the surface of both flow cells for the reversible capture of his-tagged hTfR1 (Acro Biosystems p/n CD1-H5243). The anti-histidine antibody was irreversibly immobilized via amine coupling using Cytiva provided Amine Coupling Kit (p/n BR100050) and His Capture Kit (p/n 28995056). […] Sample diluent was prepared in house and is composed of 10 mM HEPES buffer pH 7.4, 150 mM NaCl, 3 mM EDTA, and 0.05% Tween 20. Cytiva caps and vials compatible for Biacore X100 are used for sample analysis. Each analysis cycle consists of a capture step followed by sample or blank injection, and finally a regeneration step that removes any sample and hTfR1 on the sensor surface. The capture step was performed at 5 μL/min with a contact time of 24 seconds over the active flow cell only, followed by a fluidics wash with 0.1% Tween 20. Generally, 2 μg/mL hTfR1 is a sufficient concentration to observe adequate hTfR1 captured consistently between cycles. Sample or buffer was injected at 30 μL/min with a contact time of 180 seconds and a dissociation time of 180 seconds followed by a fluidics wash with 0.1% Tween 20. A 10 mM glycine solution at pH 1.5 (provided in His Capture Kit) was used for regeneration at 30 μL/min with a 60 second contact time. A cycle was performed for each sample concentration analyzed along with one cycle repeating one concentration for variability evaluation and 2-3 buffer cycles. Results were analyzed in Biacore Evaluation Software. Buffer cycles were averaged and subtracted from sample injections prior to kinetic fitting. A monovalent or kinetic fit was specified as relevant for the sample analyzed. Accuracy of the fit was evaluated and data points are excluded as applicable. […]

T1 sequence (P02786 89-760 limits assumed): as above

Binder	Kd [1] [nM]	Kd [2] [nM]	Kd [3] [nM]	Kd [4] [nM]	koff [4] [s⁻¹]	kon [4] [M⁻¹ s⁻¹]	Kd [5] [nM]	Kd [6] [nM]	koff [6] [s⁻¹]	kon [6] [M⁻¹ s⁻¹]
Fab0068 (Fab, V domains shown) VH: EVQLVESGGGLVQPGGSLRLSCATSGYTFTSYWVHWVRQAPGKGLEWVAEINPTNGRVNYIEKFKSRITLSVDKSKSTVYLQMNSLRAEDTAVYYCARGTRAYHYWGQGTLVTVSS VL: DIQLTQSPSSLSASVGDRVTITCRASDGLYSNLAWYQQKPGKAPKLLIYDATKLASGVPSRFSGSGSGTDYTLTISSLQPEDFATYYCQHFWGTPLTFGQGTKVEIKR	0.43	0.84	1.75	2.34	0.00366	1.57e+06	7.37	0.97	0.00113	1.17e+06
Fab0002 (Fab, V domains shown) VH: EVQLVQSGAEVKKPGASVKVSCKASGYTFTSYWMHWVRQAPGQRLEWIGEINPTNGRTNYIEKFKSRATLTVDKSASTAYMELSSLRSEDTAVYYCARGTRAYHYWGQGTMVTVSS VL: DIQMTQSPSSLSASVGDRVTITCRASDNLYSNLAWYQQKPGKSPKLLVYDATNLADGVPSRFSGSGSGTDYTLTISSLQPEDFATYYCQHFWGTPLTFGQGTKVEIKR	2.8	7.28	0.96	25.2	0.0155	614000	33.8	7.68	0.00499	649000
Fab0072 (Fab, V domains shown) VH: EVQLVESGGGLVQPGGSLRLSCATSGYTFNSYWMHWVRQAPGKGLEWVAEINPTNGRFNYIEKFKSRITLSVDKSKSTVYLQMNSLRAEDTAVYYCARGTRAYHYWGQGTLVTVSS VL: DIQLTQSPSSLSASVGDRVTITCRASDNLYRNLAWYQQKPGKAPKLLIYDARNLASGVPSRFSGSGSGTDYTLTISSLQPEDFATYYCQHFWGTPLTFGQGTKVEIKR	0.19	0.19	1.18	3.88	0.0108	2.78e+06	11.9	0.331	0.000614	1.86e+06
Fab0074 (Fab, V domains shown) VH: EVQLVESGGGLVQPGGSLRLSCATSGYTFKSYWMHWVRQAPGKGLEWVAEINPTNGRTNYIEKFKSRITLSVDKSKSTVYLQMNSLRAEDTAVYYCARGTRAYHYWGQGTLVTVSS VL: DIQLTQSPSSLSASVGDRVTITCRASDGLYSNLAWYQQKPGKAPKLLIYDAKNLASGVPSRFSGSGSGTDYTLTISSLQPEDFATYYCQHFWGTPLTFGQGTKVEIKR	0.46	0.46	2.14	4.31	0.0105	2.44e+06	17.5	0.471	0.000782	1.66e+06
Fab0073 (Fab, V domains shown) VH: EVQLVESGGGLVQPGGSLRLSCATSGYTFKSYWMHWVRQAPGKGLEWVAEINPTNGRTNYIEKFKSRITLSVDKSKSTVYLQMNSLRAEDTAVYYCARGTRAYHYWGQGTLVTVSS VL: DIQLTQSPSSLSASVGDRVTITCRASDNLYRNLAWYQQKPGKAPKLLIYDATKLASGVPSRFSGSGSGTDYTLTISSLQPEDFATYYCQHFWGTPLTFGQGTKVEIKR	0.29	0.32	1.95	2.85	0.00677	2.38e+06	8.68	0.351	0.00065	1.85e+06
Fab0071 (Fab, V domains shown) VH: EVQLVESGGGLVQPGGSLRLSCATSGYTFNSYWMHWVRQAPGKGLEWVAEINPTNGRTNYIEKFKSRITLSVDKSKSTVYLQMNSLRAEDTAVYYCARGTRAYHYWGQGTLVTVSS VL: DIQLTQSPSSLSASVGDRVTITCRASDGLYSNLAWYQQKPGKAPKLLIYDARNLASGVPSRFSGSGSGTDYTLTISSLQPEDFATYYCQHFWGTPLTFGQGTKVEIKR	0.45	0.43	0.74	8.13	0.0112	1.38e+06	53.3	0.553	0.000865	1.56e+06
Fab0070 (Fab, V domains shown) VH: EVQLVESGGGLVQPGGSLRLSCATSGFTFTSYWMHWVRQAPGKGLEWVAEINPTNGRTNYIEKFKSRITLSVDKSKSTVYLQMNSLRAEDTAVYYCARGTRAYHYWGQGTLVTVSS VL: DIQLTQSPSSLSASVGDRVTITCRASDKLYSNLAWYQQKPGKAPKLLIYDATLLASGVPSRFSGSGSGTDYTLTISSLQPEDFATYYCQHFWGTPLTFGQGTKVEIKR	0.49	1.11	1.39	4.52	0.00582	1.29e+06	15.3	0.923	0.0012	1.3e+06
Fab0069 (Fab, V domains shown) VH: EVQLVESGGGLVQPGGSLRLSCATSGYTFTSYWVHWVRQAPGKGLEWVAEINPTNGRSNYIEKFKSRITLSVDKSKSTVYLQMNSLRAEDTAVYYCARGTRAYHYWGQGTLVTVSS VL: DIQLTQSPSSLSASVGDRVTITCRASDGLYSNLAWYQQKPGKAPKLLIYDATKLASGVPSRFSGSGSGTDYTLTISSLQPEDFATYYCQHFWGTPLTFGQGTKVEIKR	0.35	0.75	1.29	2.72	0.00375	1.38e+06	4.68	0.783	0.00108	1.38e+06
